Several values for one entry are separate records, joined by “and”; a condition that tells them apart may be missing. Identical values can stand only once.
Experiments:
[1] = target: Full-length VEX1 tagged with 12xmyc at the C-terminus at the native locus (Trypanosoma brucei); test: SEC; trypanosome extracts (1% CHAPS in PBS, micrococcal nuclease treated) on a BioBasic SEC 1000 column at 5 °C, elution in 0.3% CHAPS in PBS; fractions analysed by anti-myc protein blot; calibrated with thyroglobulin, ferritin, BSA and myoglobin
[2] = target: VSG exclusion factor 2 (VEX2) with an N-terminal 6x c-myc tag, tagged at the native locus (T. brucei); test: native gel or EMSA; blue native PAGE (3-12% gradient, 4 °C) of digitonin lysates treated with micrococcal nuclease, blotted for the myc-tagged protein; with and without knockdown of VEX1, VEX2 or CAF-1
[3] = target: VSG exclusion factor 1 (VEX1), full length, with a C-terminal 12xmyc tag at the native locus (T. brucei); test: as above

Substance: Full-length VEX1 tagged with 12xmyc at the C-terminus at the native locus (natural protein)
- stoichiometry N [1]: 2

Substance: VSG exclusion factor 2 (VEX2) with an N-terminal 6x c-myc tag, tagged at the native locus (natural protein)
- stoichiometry N [2]: 2 and 6

Substance: VSG exclusion factor 1 (VEX1), full length, with a C-terminal 12xmyc tag at the native locus (natural protein)
- stoichiometry N [3]: 2

From publication PMC10713589
